From a protein production outcome set (Wang et al. 2014)

Assay: label from the status in PepcDB records

Q: Which protein production does the source give for “MNVVQVEYLNVAEIKALLNSTISKLNPRYTSNYMIVTAILTGARLSEIAGLTWNDINFNFNTININKSYDYFAKSFKPTKNKSSNRIIKINNTLCDVLKELRTNNTDLVFKNKRGLIPTSNAVNKALRARLEELNINRRNFHFHSLRHSHVAFLLSQGIDIYPIAQRLGHSDITTTTRTYAYLIEEYKDKNDAIIIAGLDKLEHHHHHH” here?
A: failed

Q: With “MNWIPLEQLLLKLHTPRAVSAAPAIDLGAVQEQALSLAAALQARGVRRLAVHLEDAVELAVALLGAWRAGASVLLPADLQAQTRQRWSSEVDLWLTDQDTPLHQLQASPLAPAELDPDTCQLSLCTSGSSGEPKRIEKNLRQLANEVVALEHLWGADLGQAWIIGSVATQHIYGLLFRVLWPLCAGRPFVRRQLPFPEDLQRASRECPAFAWVASPALLKRMGDNLDWPALSQVRRVFSSGGALPAEAASGLHQRLQQWPTEILGSSETGGIAWRQGPGLWQPFADVRLSQDADGALLIASPYLPAGHVEHTADAARIAADGRFELLGRLDRIVKLEEKRISLPMLEQALASHEWVAEARLGVIEDNRAYLGALLVLSEPGLHALRNQGRRHLTQALRQHLAGHCEALALPRRWRLVRQLPLNSQGKLPQAQVQALLLAPRPQAPEVLEQRQHEEEWQLQLAIPPDLAYFSGHFPQTPVLPGVVQVDWALALGQQLLELPGRFAGMEVLKFQQLVRPGDRIQLNLRFDAQRQKLYFAYLNDGAPCSCGRIVLEASCG” as the sequence, how does the protein production read?
A: failed

Q: With “MNYHWSDHPDPNKWADCVHCGMCLEACPTYELTGHEQQSPRGRVHLIKSVAEGKLEVNEAFADPVFTCLDCRACETACPADVEVGGLIEEARGQIRQALPLSGWKLEHHHHHH” as the sequence, how does the protein production read?
A: failed

Q: With “MNYRNKAFLKYEEDYFIERIIKALKDYEEIIIISNNPEEYKEFGLKVFKDIYPSQGPLSGIHSALNHIKNDYCLVVACDMPFINKDVVNYLGNIKEDYEILIPKFQERLQPLCAIYKKSCKDIMEKELINNSNKLIKTCFKFSMKVVEEFPFIEKVHKKEIKNFYNINTVDEYEDLIKKKEILEHHHHHH” as the sequence, how does the protein production read?
A: failed

Q: With “MNYSTLTSVLLCLLLGAPAWADHYQVVTEEWAPYNYEENGQLTGMTTEIVRAIMAVSGNDFNIVLAPSMRASHTLQMRPKTIMYSMFRTPEREVLYKWVGPIVEESVHPYQLATAAPVTSLEQLLHAPQITTRHAGLLPDMLQSLGFKNLDKSAAQSVQLYRMLLNGRTAIIIGDTDAGVAYQSRQLNIAPGTLRQIPIELYRSSLYIAFSRDCEDELVASWARALETLRQSGELERIQRRYEQLVGQ” as the sequence, how does the protein production read?
A: failed

Q: Which protein production does the source give for “MPAAAYWLPASDETPLYTRHWPSATAVGAVMLSHGMAEHAGRYERLAAALNAAGYHFYAIDQRGHGRTAEADELGHFADQGGWGKVVGDLASLNHHIRQQHPELPIFLLGHSMGSYISMAYLLHHSCSLQGAILSGSNYQPQALYRIARLIARFERWRQGPLGKSALIDFLSFGSFNKAFKPNRTAFDWLSRDPQEVDRYVADPLCGFRCSNQLWVDLLGGLADITPPTHLRQIDADLPLLIIGGERDPVSQGKRLGDLADALRGAGLRQVTLKTYPEARHELFNESNRDAVTQDLIDWLEQALRHRRDHST” here?
A: failed

Q: Which protein production does the source give for “MPAGLVISAPASGVGKTTLTLALARAWRNRGLSVQCFKSGPDYIDPAFHAAATGRASVNVDSWAMDRGGIAHLVGRGADADVVLAEGSMGLFDGVAARGVSGTGATADIAEMLGWPVLLVIDPSGQAQTAAAIAAGLRDYRPGVRLAGVVLNRVASPRHEDLVRRALDDAGIAVFGALPRHAEISLPKRHLGLVQAEEQAEIGKLIDEAARFVAEHVDLDAVLQSAAAWAPQPAANGLNVTPPGQRIALARDAAFSFVYPHMLEAWRAAGADISTFSPLADEAPDASADVCWLPGGYPELHAGKIAANARFCSGLRAFAETRPVHGECGGYMVLGTALTDADGVRHEMAGLLGLETSFAKRRMHLGYRLAELAAPMPGHSPGARLRGHEFHYSTIAAQPDMPLAVVHDATGAVIAETGSRRGNATGTFFHLIAEDRLEHHHHHH” here?
A: not failed

Q: With “MPAITRRALSAGLIAAVALSVLPFAAQAAEELKIGYQKTGLPVIARQQGVIEKALEAKGVKVSWVEFTAGPPLVEALNVGSINVGWTGDAPPIFGQAAGSAIVYVAALPSNGKGEAIFTKPESGIKSVADLKGKKVGVGKGTSAHNLLVAALEKNGLKLSDIDVTYLSPADAAAAFASDKIDAWAVWDPFYAIAETRYKPVTLARTSDVLDVKTYFLANRDYAKSHADTINTNVGALGEAAKWSAANRDKVAAALHEVTGVPLEAQTLAANRSEFGITRIDDKIVASQQETADRFYRLGLIPKQISIKDAVWSGATN” as the sequence, how does the protein production read?
A: failed

Q: Which protein production does the source give for “MPAKPIDLGPLHFAKRGDAVAYLNDMLHRYDVGDRVGANDTVILRAALEHHPDAEAKKGCGITHFNVRTADFGTKCFWLNRTDGTTEKFSHRACIYGT” here?
A: failed

Q: For “MPALACVDTSFVPPAYAFSDTAGDVFIPASSPTSAAVVVDRWSPSLSSSLYRIDGWGAPYFIANSSGNISVRPHGSETLPHQDIDLLKIVKKVTGPKSSGGLGLQLPLIVRFPDVLKNRLECLQSAFDYAIKSQGYDSHYQGVYPVKCNQDRFVVEDIVKFGSSFRFGLEAGSKPEILLAMSCLCKGSPDAFLVCNGFKDAEYISLALLGRKLALNTVIVLEQEEELDLVIELSQKMNVRPVIGLRAKLRTKHSGHFGSTSGEKGKFGLTTTQIVRVVRKLRQSGMLDCLQLLHFHIGSQIPSTSLLSDGVAEAAQLYCELVRLGAHMKVIDIGGGLGIDYDGSKSGESDLSVAYSLEEYAEAVVASVRVVCDRSSVKHPVICSESGRAIVSHHSVLIFEAVSADKPMVHQATPGDIQFLLEGNEEARANYEDLYAAVMRGDHESCLLYVDQLKQRCVEGFKEGVLSIEQLASVDGLCEWVLKAIGASDPVHTYNINLSVFTSIPDLWGIDQLFPIVPIHKLDQRPGARGILSDLTCDSDGKINKFIGGESSLPLHELDKNGSGGRYFLGMFLGGAYEEALGGVHNLFGGPSVVRVSQSDGPHSFAVTRAVPGQSSADVLRAMQHEPELMFQTLKHRAEEMMHTKGGSEGENEEEEEDDEFNNVAASLDRSFHNMPYLATEQASPSNSLSAAISNLGFYYCDEDVYDYISA”, which protein production is on record?
A: failed

Q: Which protein production does the source give for “MPALITYRTTVQEDWVDYNGHLRDAFYLLIFSYATDALMDRIGLDADSRGQSGNSLFTLEAHINYLHEVKLGTEVWVQTQILGFDRKRLHVYHSLHRAGFDEVLAASEQMLLHVDLAGPQSAPFGHTTVCRLNHLVEQQEGAQAPQYMGRTIKLPA” here?
A: not failed

Q: For “MPANKKEGLIFGVMMCFGMVCVMSIYNAIINRAIYDFSLMTVFEMVIGFMIALLLDLLLVGPLAKKIAFRMPFDKTKKIYVILAMSTCMVIGMVLCMSVFGLVTAVLANGLNGDSLFSAYLMIVLKNFILAYPLQLLIMGPLVRGVFMKFVKPKLTAAI”, which protein production is on record?
A: failed

Q: With “MPAPLSIVIPTLQAESSLPRLLEALIEGLPNGLIREVIVSDGGSQDATRAIAEAAGAQVLNGPPSRGGQLRHGCDAARGDWLLVLHADTLPDPGWAGVVADHIAAREDAACFRLAFRARGPGAAWVAGWANLRTRLFGLPYGDQGLLIRRRDYQTAGGYPDQLLMEDVHLVRALSRAPVLLPHRALTGAERYLRSGWLRRGARNLWTLMRYFAGTDPEALARAYRRLEHHHHHH” as the sequence, how does the protein production read?
A: failed

Q: With “MPARPGAARERIRSTAAPAVGEKVLNALRDLPAGMIYTLGAKPTVLRGLALAIEKRVKGIDWSPDGATLFAEVMDGSRHHEVRLEANGGFLTPSCDCPLWRPTGHCPHVIAALAVLKKGLVHQAITSLRLDSDYLAEVSGWLSGVEAAQPTAPAVPRLVVERGADGIQARIWLGEHPVSIHDQALPRTVRDFLWTLLNPRESGFIIERYLEAFGDDAPMALRQDDNEIPLRFDRGRVHGTLTLLEQVRGMVIARKGLEDGHPIPDTCFAAYRYYFDIPAGAVRVIDSFEGWDLWNTINYEAAEWSLDTGVSVERNSRTISLPADAFNAIGLTVTEKGLPTILERIRFYGAGGPGEPARITHNYRLRVADMNDTTALLLAEGVYGDAAIPLSAGAFSFFTSRGRSTASVPLRTKKRSSAVIAGCFAALDCVTRAELERTIRHALAGDDFLKRTVKSEAKRIITAFAAACETRETTLLAADGAWLISVAEPKVEAQLLEIPYRLFGAEIFGSSDLAGAMTVNRDALFRQFPALHNRLAEAGFDLVLQDRPVEAVTLDVTLDATRSTLDWFELRPEIRCGTGELTEQEIAEAMASGGVFRRGDSFLLINEESSRILAMLYPEAGVKKRRKAEVVRIPRLQILDWLVLRHHGVSVRLSPEDERIFASLATFEEIPSSPLPERLQATLRHYQVDAFHWLAFLYTHRFGACLADDMGLGKTIQAISLLAALHEGTLPSRVPEPRPHLIVVPPSLLFNWENELARFYPAFTVLTYRGTGRSADFTGVDIVLTSYGIIPRDIGILAEIPFHCIVFDEAQAVKNIQADTTGACRRLRGAFTLCLTGTPVENHLGEYFSVMDLAVPGLLGSYEEFRRQAGNAAAPFLETLVRRTRPFVLRRSKQMIAAELPPKIETDIYLELTPRQKALYTRTVEEVRETVLEAWRGKSPGQARIIALTAILRLRQLCLSPRLLIADSREPSPKVEFLVEQLEELFTEGHSVLVFSQFTSFLDIVEGELSRRGVHYYRLDGSTPVPERKRLVTAFQKGDEPSVFLLSLKAGGKGLNLTRATYVFHLDPWWNPAVENQASDRAHRIGQTRQVTITRLVMRHTIEEKMMELKKRKLKLYHALLEENSAGDGGGISREDFEFLLG” as the sequence, how does the protein production read?
A: failed

Q: Which protein production does the source give for “MPARQSFTDLKNLVLCDIGNTRIHFAQNYQLFSSAKEDLKRLGIQKEIFYISVNEENEKALLNCYPNAKNIAGFFHLETDYVGLGIDRQMACLAVNNGVVVDAGSAITIDLIKEGKHLGGCILPGLAQYIHAYKKSAKILEQPFKALDSLEVLPKSTRDAVNYGMVLSVIACIQHLAKNQKIYLCGGDAKYLSAFLPHSVCKERLVFDGMEIALKKAGILECK” here?
A: not failed

Q: Which protein production does the source give for “MPATAGRVRMPANNRVHSSAALQTHGIWQSAIGYDPYAPTSKEEPKTTQQKTEDPENSYASFQGLLALARITGSNNDEARGSCKKCGRVGHLTFQCRNFLSTKEDKEKDPGAIEAAVLSGLEKIRRGVGKGEVEEVSSEEEEESESSDSDVDSEMERIIAERFGKKKGGSSVKKTSSVRKKKKRVSDESDSDSDSGDRKRRRRSMKKRSSHKRRSLSESEDEEEGRSKRRKERRGRKRDEDDSDESEDEDDRRVKRKSRKEKRRRRSRRNHSDDSDSESSEDDRRQKRRNKVAASSDSEANVSGDDVSRVGRGSSKRSEKKSRKRHHRKERE” here?
A: failed

Q: For “MPCDFPGCGRIFSNRQYLNHHKKYQHIHQKSFSCPEPACGKSFNFKKHLKEHMKLHSDTRDYICEF”, which protein production is on record?
A: not failed

Q: Which protein production does the source give for “MPCPPNVSMMLGKEGPAADSERVTLWRDHHLSHTHAVLWTVILVATVGDILLTMTGLTVGLQEGNAVVSTMLAEFGLAGLWLVKFGAMLWLVAGWRLLSERNATVFLALFAVVTLAVVAYNSVTILQYRGVITAVAGI” here?
A: failed

Q: For “MPDACFSDGDPIVLVVLGYVVVVVAVLGGYALTGGHMGALYQPAELIIIGGAAVGAFISSNSGKAIKATMKAMPSLLKGSKYKKELYLDVMALLYVLLSKARREGILFLEKEIADPASSSVFSQYPRILADAKMMEFLTDYLRMMVNGNMNAFEIEALMDHEIETVRHEAEIPAHALSRVGDGLPAFGIVAAVMGVVHALASADLPPAELGALIANAMVGTFLGILLAYGFVSPLASRVEHQVSESIKMYECIKVTLLASLNGYAPLVAVEFGRKVLYSTVRPSFLELDDHVREVKSLT”, which protein production is on record?
A: failed

Q: For “MPDADVNDFELVDVDQKAADKAIKDLGVKATIDEVCTVGEEGYVVTATDKEGYGGDIKITVGITADGTINGISILSISETAGLGMRATEPAFYEQYQGKQAEKFVVSKDGGDGEPIDALSGATITSRAVTGAVNAALGYYQNAFLEHHHHHH”, which protein production is on record?
A: not failed

Q: With “MPDFVNLWIYLSSTPLFGLTATLTVYLSAHAMYLRLGQVPLANPVLWSMVVLAAGLLAFGVPYPTYFAGAQFIHFLLGPAVVALAWPLWMRRAELRRRWARLLWAALFGGAVACASAVLLGWAVGLPRDIILSLAPKSVTAPVAMGLSETLGGIPALSAVFAALTGLVGALTGKYLFDLLGAVRGRQDWADRGFALGTVSHGIGAARAIQVNADAGAYAGLALGLQVILASLLIPVAFRLAAGLGGS” as the sequence, how does the protein production read?
A: failed
